Measured values: paper PMC5234120, “Age-related macular degeneration associated polymorphism rs10490924 in ARMS2 results in deficiency of a complement activator” (Journal of Neuroinflammation, 2017)

B1: recombinant ARMS2 (age-related maculopathy susceptibility 2) (natural protein, human, UniProt P0C7Q2 1-107, looked up)
chain: MLRLYPGPMVTEAEGKGGPEMASLSSSVVPVSFISTLRESVLDPGVGGEGASDKQRSKLSLSHSMIPAAKIHTELCLPAFFSPAGTQRRFQQPQHHLTLSIIHTAAR
notes: ARMS2, human, codon usage optimized full length cDNA; Glycosylated in P. pastoris (17 and 15 kDa bands); also called His-tagged ARMS2; rARMS2
B2: ARMS2 peptide 3 (amino acids 71 to 107) (peptide)
peptide: IHTELCLPAFFSPAGTQRRFQQPQHHLTLSIIHTAAR
notes: ARMS2, human, amino acids 71 to 107; also called C-terminal peptide 3 of ARMS2; source: peptide generated by Jerini Peptide Biotechnologies

What was measured:
properdin [1] = molecular target: T1, properdin (human, UniProt P27918 28-469); assay: BLI; BLITZ system; His-tagged ARMS2 loaded on Ni2+ NTA biosensors in PBS with 0.1% gelatin; properdin 70 to 1800 nM; 1:1 model; conditions: both partners purified
T1 construct: properdin (complement factor P), human; the oligomeric state of the purified protein was not measured here; also called purified properdin; source: bought: Complement Technologies (CompTech), purified; bought: TECOmedical GmbH (peptide ELISA); endogenous, normal human serum (NHS)

properdin [2] = molecular target: T1, properdin; assay: ELISA; ARMS2 peptides 1, 2, 3 (each 500 nM) coated on the plate; 2 uM properdin (TECOmedical) in PBS; detected with monoclonal properdin antibody; conditions: both partners purified

T1 sequence (P27918 28-469): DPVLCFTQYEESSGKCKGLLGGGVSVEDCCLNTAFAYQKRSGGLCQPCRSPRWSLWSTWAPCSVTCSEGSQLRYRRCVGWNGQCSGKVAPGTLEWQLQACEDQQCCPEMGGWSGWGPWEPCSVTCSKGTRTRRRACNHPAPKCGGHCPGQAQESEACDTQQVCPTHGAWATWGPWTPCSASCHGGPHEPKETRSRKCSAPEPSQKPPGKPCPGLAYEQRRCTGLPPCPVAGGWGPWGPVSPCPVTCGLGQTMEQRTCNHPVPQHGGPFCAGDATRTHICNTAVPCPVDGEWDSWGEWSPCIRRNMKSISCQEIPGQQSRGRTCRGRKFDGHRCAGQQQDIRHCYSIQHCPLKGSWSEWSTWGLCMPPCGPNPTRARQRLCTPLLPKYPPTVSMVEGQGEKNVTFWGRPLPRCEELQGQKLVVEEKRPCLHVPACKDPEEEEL

Binder	Kd (properdin [1]) [nM]	binding result (properdin [2])
B1	500	–
B2	–	binds
